# Measured values: patent US20210388110A1 (published 2021)
# Target: T1, soluble human GPC3 (human, UniProt P51654 25-563, limits assumed)
# T1 construct: also called glypican 3
# Assay: SPR (Biacore), single-arm antibody, soluble human GPC3
# T1 sequence (P51654 other isoform, or with tags, fused parts or gaps limits assumed, form in doubt): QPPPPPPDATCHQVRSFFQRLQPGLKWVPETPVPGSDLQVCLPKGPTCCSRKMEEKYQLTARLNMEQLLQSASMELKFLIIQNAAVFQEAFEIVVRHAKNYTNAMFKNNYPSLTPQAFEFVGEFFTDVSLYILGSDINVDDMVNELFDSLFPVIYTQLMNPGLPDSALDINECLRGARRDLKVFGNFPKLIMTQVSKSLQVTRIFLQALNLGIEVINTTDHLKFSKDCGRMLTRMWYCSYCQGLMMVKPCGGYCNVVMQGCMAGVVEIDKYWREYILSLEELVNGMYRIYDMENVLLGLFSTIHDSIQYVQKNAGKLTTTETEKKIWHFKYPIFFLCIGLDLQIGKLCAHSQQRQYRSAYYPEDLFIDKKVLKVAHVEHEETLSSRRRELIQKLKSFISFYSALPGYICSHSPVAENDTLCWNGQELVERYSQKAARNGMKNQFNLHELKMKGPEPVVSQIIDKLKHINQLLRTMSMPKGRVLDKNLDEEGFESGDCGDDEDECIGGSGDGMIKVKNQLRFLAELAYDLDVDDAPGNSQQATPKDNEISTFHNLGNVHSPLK
row,Kd,Binder
1,5.7 nM,"GCH059-G1dh/none-Hi-Kn010G3/L0000-k0 (antibody, human IgG1, kappa, single-arm antibody) heavy: not shown EPKSSDKTHTCPPCPAPELLGGPSVFLFPPKPKDTLMISRTPEVTCVVVDVSHEDPEVKFNWYVDGVEVHNAKTKPREEQYNSTYRVVSVLTVLHQDWLNGKEYKCKVSNKALPAPIEKTISKAKGQPREPQVCTLPPSRDELTKNQVSLWCLVKGFYPSDIAVEWESNGQPENNYKTTPPVLDSDGSFFLYSKLTVDKSRWQQGNVFSCSVMHEALHNRYTQKSLSLSP light: DIVMTQSPLSLPVTPGEPASISCRSSQSLVHSNRNTYLHWYQQKPGQAPRLLIYKVSNRFSGVPDRFSGSGSGTDFTLKISRVEAEDVGVYYCGQGTQVPYTFGQGTKLEIKRTVAAPSVFIFPPSDEQLKSGTASVVCLLNNFYPREAKVQWKVDNALQSGNSQESVTEQDSKDSTYSLSSTLTLSKADYEKHKVYACEVTHQGLSSPVTKSFNRGEC"
2,5.39 nM,"GCH100-G1dh/none-Hi-Kn010G3/L0000-k0 (antibody, human IgG1, kappa, single-arm antibody) heavy: not shown EPKSSDKTHTCPPCPAPELLGGPSVFLFPPKPKDTLMISRTPEVTCVVVDVSHEDPEVKFNWYVDGVEVHNAKTKPREEQYNSTYRVVSVLTVLHQDWLNGKEYKCKVSNKALPAPIEKTISKAKGQPREPQVCTLPPSRDELTKNQVSLWCLVKGFYPSDIAVEWESNGQPENNYKTTPPVLDSDGSFFLYSKLTVDKSRWQQGNVFSCSVMHEALHNRYTQKSLSLSP light: DIVMTQSPLSLPVTPGEPASISCRSSQSLVHSNRNTYLHWYQQKPGQAPRLLIYKVSNRFSGVPDRFSGSGSGTDFTLKISRVEAEDVGVYYCGQGTQVPYTFGQGTKLEIKRTVAAPSVFIFPPSDEQLKSGTASVVCLLNNFYPREAKVQWKVDNALQSGNSQESVTEQDSKDSTYSLSSTLTLSKADYEKHKVYACEVTHQGLSSPVTKSFNRGEC"
3,5.24 nM,"GCH067-G1dh/none-Hi-Kn010G3/L0000-k0 (antibody, human IgG1, kappa, single-arm antibody) heavy: not shown EPKSSDKTHTCPPCPAPELLGGPSVFLFPPKPKDTLMISRTPEVTCVVVDVSHEDPEVKFNWYVDGVEVHNAKTKPREEQYNSTYRVVSVLTVLHQDWLNGKEYKCKVSNKALPAPIEKTISKAKGQPREPQVCTLPPSRDELTKNQVSLWCLVKGFYPSDIAVEWESNGQPENNYKTTPPVLDSDGSFFLYSKLTVDKSRWQQGNVFSCSVMHEALHNRYTQKSLSLSP light: DIVMTQSPLSLPVTPGEPASISCRSSQSLVHSNRNTYLHWYQQKPGQAPRLLIYKVSNRFSGVPDRFSGSGSGTDFTLKISRVEAEDVGVYYCGQGTQVPYTFGQGTKLEIKRTVAAPSVFIFPPSDEQLKSGTASVVCLLNNFYPREAKVQWKVDNALQSGNSQESVTEQDSKDSTYSLSSTLTLSKADYEKHKVYACEVTHQGLSSPVTKSFNRGEC"
4,5.28 nM,"H0610-G1dh/none-Hi-Kn010G3/L0062-k0 (antibody, human IgG1, kappa, single-arm antibody) heavy: not shown EPKSSDKTHTCPPCPAPELLGGPSVFLFPPKPKDTLMISRTPEVTCVVVDVSHEDPEVKFNWYVDGVEVHNAKTKPREEQYNSTYRVVSVLTVLHQDWLNGKEYKCKVSNKALPAPIEKTISKAKGQPREPQVCTLPPSRDELTKNQVSLWCLVKGFYPSDIAVEWESNGQPENNYKTTPPVLDSDGSFFLYSKLTVDKSRWQQGNVFSCSVMHEALHNRYTQKSLSLSP light: DIVMTQSPLSLPVTPGEPASISCRSSQSLVHSNRDTYLHWYQQKPGQAPRLLIYKVSNRFSGVPDRFSGSGSGTDFTLKISRVEAEDVGVYYCGQGTQVPYTFGQGTKLEIKRTVAAPSVFIFPPSDEQLKSGTASVVCLLNNFYPREAKVQWKVDNALQSGNSQESVTEQDSKDSTYSLSSTLTLSKADYEKHKVYACEVTHQGLSSPVTKSFNRGEC"
5,5.45 nM,"H0610-G1dh/none-Hi-Kn010G3/L0046-k0 (antibody, human IgG1, kappa, single-arm antibody) heavy: not shown EPKSSDKTHTCPPCPAPELLGGPSVFLFPPKPKDTLMISRTPEVTCVVVDVSHEDPEVKFNWYVDGVEVHNAKTKPREEQYNSTYRVVSVLTVLHQDWLNGKEYKCKVSNKALPAPIEKTISKAKGQPREPQVCTLPPSRDELTKNQVSLWCLVKGFYPSDIAVEWESNGQPENNYKTTPPVLDSDGSFFLYSKLTVDKSRWQQGNVFSCSVMHEALHNRYTQKSLSLSP light: DIVMTQSPLSLPVTPGEPASISCRSSQSLVHVNRNTYLHWYQQKPGQAPRLLIYKVSNRFSGVPDRFSGSGSGTDFTLKISRVEAEDVGVYYCGQGTQVPYTFGQGTKLEIKRTVAAPSVFIFPPSDEQLKSGTASVVCLLNNFYPREAKVQWKVDNALQSGNSQESVTEQDSKDSTYSLSSTLTLSKADYEKHKVYACEVTHQGLSSPVTKSFNRGEC"
6,6.23 nM,"GCH068-G1dh/none-Hi-Kn010G3/L0000-k0 (antibody, human IgG1, kappa, single-arm antibody) heavy: not shown EPKSSDKTHTCPPCPAPELLGGPSVFLFPPKPKDTLMISRTPEVTCVVVDVSHEDPEVKFNWYVDGVEVHNAKTKPREEQYNSTYRVVSVLTVLHQDWLNGKEYKCKVSNKALPAPIEKTISKAKGQPREPQVCTLPPSRDELTKNQVSLWCLVKGFYPSDIAVEWESNGQPENNYKTTPPVLDSDGSFFLYSKLTVDKSRWQQGNVFSCSVMHEALHNRYTQKSLSLSP light: DIVMTQSPLSLPVTPGEPASISCRSSQSLVHSNRNTYLHWYQQKPGQAPRLLIYKVSNRFSGVPDRFSGSGSGTDFTLKISRVEAEDVGVYYCGQGTQVPYTFGQGTKLEIKRTVAAPSVFIFPPSDEQLKSGTASVVCLLNNFYPREAKVQWKVDNALQSGNSQESVTEQDSKDSTYSLSSTLTLSKADYEKHKVYACEVTHQGLSSPVTKSFNRGEC"
7,5.14 nM,"H0610-G1dh/none-Hi-Kn010G3/L0043-k0 (antibody, human IgG1, kappa, single-arm antibody) heavy: not shown EPKSSDKTHTCPPCPAPELLGGPSVFLFPPKPKDTLMISRTPEVTCVVVDVSHEDPEVKFNWYVDGVEVHNAKTKPREEQYNSTYRVVSVLTVLHQDWLNGKEYKCKVSNKALPAPIEKTISKAKGQPREPQVCTLPPSRDELTKNQVSLWCLVKGFYPSDIAVEWESNGQPENNYKTTPPVLDSDGSFFLYSKLTVDKSRWQQGNVFSCSVMHEALHNRYTQKSLSLSP light: DIVMTQSPLSLPVTPGEPASISCRSSQSLVHNNRNTYLHWYQQKPGQAPRLLIYKVSNRFSGVPDRFSGSGSGTDFTLKISRVEAEDVGVYYCGQGTQVPYTFGQGTKLEIKRTVAAPSVFIFPPSDEQLKSGTASVVCLLNNFYPREAKVQWKVDNALQSGNSQESVTEQDSKDSTYSLSSTLTLSKADYEKHKVYACEVTHQGLSSPVTKSFNRGEC"
8,5.89 nM,"GCH094-G1dh/none-Hi-Kn010G3/L0000-k0 (antibody, human IgG1, kappa, single-arm antibody) heavy: not shown EPKSSDKTHTCPPCPAPELLGGPSVFLFPPKPKDTLMISRTPEVTCVVVDVSHEDPEVKFNWYVDGVEVHNAKTKPREEQYNSTYRVVSVLTVLHQDWLNGKEYKCKVSNKALPAPIEKTISKAKGQPREPQVCTLPPSRDELTKNQVSLWCLVKGFYPSDIAVEWESNGQPENNYKTTPPVLDSDGSFFLYSKLTVDKSRWQQGNVFSCSVMHEALHNRYTQKSLSLSP light: DIVMTQSPLSLPVTPGEPASISCRSSQSLVHSNRNTYLHWYQQKPGQAPRLLIYKVSNRFSGVPDRFSGSGSGTDFTLKISRVEAEDVGVYYCGQGTQVPYTFGQGTKLEIKRTVAAPSVFIFPPSDEQLKSGTASVVCLLNNFYPREAKVQWKVDNALQSGNSQESVTEQDSKDSTYSLSSTLTLSKADYEKHKVYACEVTHQGLSSPVTKSFNRGEC"
9,5.13 nM,"GCH061-G1dh/none-Hi-Kn010G3/L0000-k0 (antibody, human IgG1, kappa, single-arm antibody) heavy: not shown EPKSSDKTHTCPPCPAPELLGGPSVFLFPPKPKDTLMISRTPEVTCVVVDVSHEDPEVKFNWYVDGVEVHNAKTKPREEQYNSTYRVVSVLTVLHQDWLNGKEYKCKVSNKALPAPIEKTISKAKGQPREPQVCTLPPSRDELTKNQVSLWCLVKGFYPSDIAVEWESNGQPENNYKTTPPVLDSDGSFFLYSKLTVDKSRWQQGNVFSCSVMHEALHNRYTQKSLSLSP light: DIVMTQSPLSLPVTPGEPASISCRSSQSLVHSNRNTYLHWYQQKPGQAPRLLIYKVSNRFSGVPDRFSGSGSGTDFTLKISRVEAEDVGVYYCGQGTQVPYTFGQGTKLEIKRTVAAPSVFIFPPSDEQLKSGTASVVCLLNNFYPREAKVQWKVDNALQSGNSQESVTEQDSKDSTYSLSSTLTLSKADYEKHKVYACEVTHQGLSSPVTKSFNRGEC"
